Test results: the RNAGym collection of RNA variant scans (doi:10.7554/elife.90254)

B1: OR4K15 (parent)
chain: GUUAACGGUCAUAGGCCAUGGAAACUAGGAGCACCAUUUCGCUGCCAGUGAAGAAAUGAACAAAGAAAAUCUGGGCCAGGCAGGCAUCAAAAGAAAUAGUCUUGCGCUCAACCAGAAAGUCUGUAAUCAUUUUAAGGGUA

Variants of: B1
Assay: self-cleavage, relative activity (ratio to wild type); higher = more cleavage; in vitro, sequencing; the parent is a self-cleaving ribozyme
With A33G U122C the self-cleavage was 0.64.
Variant U2C A129G has a self-cleavage of 0.75.
Variant A91C A129G has a self-cleavage of 1.15.
For C40A A95G, the self-cleavage was 2.53.
For U37C C77U, the self-cleavage was 2.11.
In the case of A64U U103C, the self-cleavage is reported as 0.87.
A30G U57G gave a self-cleavage of 1.24.
G29A A47G gave a self-cleavage of 0.87.
For A5G A33G, the self-cleavage was 0.67.
A117U U120C showed a self-cleavage of 0.83.
U100C U120C showed a self-cleavage of 2.65.
A5U A22G gave a self-cleavage of 0.69.
A98G A116G gave a self-cleavage of 0.12.
With U12C A78G the self-cleavage was 0.31.
With G21A A36G the self-cleavage was 1.9.
Work on U39C C40U yielded a self-cleavage of 1.54.
For A33U C85A, the self-cleavage was 2.05.
Variant A13U A90C has a self-cleavage of 1.69.
With U3A G53A the self-cleavage was 1.01.
Variant A62G U72G has a self-cleavage of 0.22.
U43A A66U gave a self-cleavage of 1.62.
With U87C U133A the self-cleavage was 0.9.
C46A A60G gave a self-cleavage of 0.67.
For C88U U108C, the self-cleavage was 0.01.
U3A A18G gave a self-cleavage of 1.11.
In the case of U120C A129U, the self-cleavage is reported as 0.78.
Work on U38C U39C yielded a self-cleavage of 1.64.
Work on A66C U131A yielded a self-cleavage of 1.1.
Variant U19A A51G has a self-cleavage of 1.36.
A60G A98U gave a self-cleavage of 2.21.
Variant A59G A66G has a self-cleavage of 1.15.
Work on G83A U103C yielded a self-cleavage of 0.41.
Variant U72C G79A has a self-cleavage of 0.32.
Variant U2C A47U has a self-cleavage of 0.86.
With A126G U133C the self-cleavage was 1.2.
For A67U A90G, the self-cleavage was 1.72.
With A5G U9A the self-cleavage was 1.38.
Work on A36G A89G yielded a self-cleavage of 1.52.
In the case of A96C A117G, the self-cleavage is reported as 1.87.
In the case of A91G A95G, the self-cleavage is reported as 1.76.
U38A A56C gave a self-cleavage of 1.55.
Variant A78G A118U has a self-cleavage of 0.21.
A18U U108A gave a self-cleavage of 0.02.
A68U A92G showed a self-cleavage of 0.44.
U37C G75A showed a self-cleavage of 0.08.
Variant A63U A90U has a self-cleavage of 1.93.
In the case of U72G A92G, the self-cleavage is reported as 0.42.
Variant A82G G99U has a self-cleavage of 0.07.
A63G A135G showed a self-cleavage of 1.35.
In the case of A86U A114G, the self-cleavage is reported as 1.22.
Variant A62U G136A has a self-cleavage of 1.59.
A51C A59G showed a self-cleavage of 1.73.
Variant A18G A55G has a self-cleavage of 1.07.
Variant G115A has a self-cleavage of 0.12.
Work on A54G A60U yielded a self-cleavage of 1.59.
With G48C A51G the self-cleavage was 0.94.
Work on A36G A66G yielded a self-cleavage of 1.8.
Variant A24G A68C has a self-cleavage of 1.49.
In the case of A33U A59C, the self-cleavage is reported as 2.23.
Variant A114G U122A has a self-cleavage of 0.39.
For A91U A111U, the self-cleavage was 0.23.
For A36U U130C, the self-cleavage was 1.45.
U2C A67G showed a self-cleavage of 1.13.
Variant C25U U72C has a self-cleavage of 0.4.
A82U U127C showed a self-cleavage of 0.13.
Variant A22G U39G has a self-cleavage of 1.41.
In the case of A18U A55C, the self-cleavage is reported as 1.22.
G73U A86C showed a self-cleavage of 0.19.
With U39A U49C the self-cleavage was 1.
U108C A111C showed a self-cleavage of 0.01.
Work on A59U U102C yielded a self-cleavage of 1.23.
A68G U70A showed a self-cleavage of 1.12.
Variant A51U A82C has a self-cleavage of 0.24.
A52G A60G showed a self-cleavage of 1.32.
With A36G U97C the self-cleavage was 2.04.
A13U A110U gave a self-cleavage of 1.26.
With A55G U139A the self-cleavage was 1.49.
Variant U9C U49A has a self-cleavage of 1.56.
For U26C U132C, the self-cleavage was 0.52.
A62U A78U showed a self-cleavage of 0.33.
C6U A54G gave a self-cleavage of 0.92.
With G7U U122A the self-cleavage was 1.64.
U103C gave a self-cleavage of 0.7.
Variant A55G A63U has a self-cleavage of 1.1.
For A36C U49A, the self-cleavage was 2.
In the case of G29A, the self-cleavage is reported as 1.82.
G48U U103C gave a self-cleavage of 0.49.
A27G U103A gave a self-cleavage of 0.45.
Work on A23G A89U yielded a self-cleavage of 0.72.
In the case of G15A U120C, the self-cleavage is reported as 1.01.
A82G U127C gave a self-cleavage of 0.22.
Variant A33G U108C has a self-cleavage of 0.02.
Work on A78U U87G yielded a self-cleavage of 0.09.
Work on C46U G74A yielded a self-cleavage of 0.32.
Work on A22G A66U yielded a self-cleavage of 1.41.
Work on A23G A116U yielded a self-cleavage of 0.3.
Variant G44A A94G has a self-cleavage of 1.48.
Work on A11G A98G yielded a self-cleavage of 0.33.
A63G U139A showed a self-cleavage of 1.74.
A5G A82G gave a self-cleavage of 0.68.
For U70C A118U, the self-cleavage was 0.18.
With G123C A135G the self-cleavage was 0.78.
Variant A22C A69U has a self-cleavage of 1.74.
U3A U70A gave a self-cleavage of 1.46.
For U12C U38C, the self-cleavage was 1.73.
With A22G A91G the self-cleavage was 0.49.
Variant U70C A78G has a self-cleavage of 0.26.
Variant A52G A56C has a self-cleavage of 0.99.
A11G A111C gave a self-cleavage of 0.04.
Variant A66U U87C has a self-cleavage of 0.42.
With U9A A129U the self-cleavage was 1.02.
A54G C112U showed a self-cleavage of 0.03.
A56U A60G gave a self-cleavage of 0.43.
With G31C A125G the self-cleavage was 0.93.
In the case of U72C C76U, the self-cleavage is reported as 0.22.
A27G A30U gave a self-cleavage of 1.61.
For A24C A30G, the self-cleavage was 1.02.
G44U A110G gave a self-cleavage of 0.18.
Variant A60G U102A has a self-cleavage of 0.99.
Work on U19A U108C yielded a self-cleavage of 0.03.
With A18U A82G the self-cleavage was 0.46.
Work on U39C U120C yielded a self-cleavage of 0.95.
With A54G U57C the self-cleavage was 0.65.
Variant U19A G31A has a self-cleavage of 1.02.
Work on C16A A22G yielded a self-cleavage of 1.29.
Work on U39C A126G yielded a self-cleavage of 1.18.
A56G A140G showed a self-cleavage of 1.78.
Work on G41A U130G yielded a self-cleavage of 1.4.
For A91G U139A, the self-cleavage was 1.64.
For G8A A52G, the self-cleavage was 2.73.
For G41A U43C, the self-cleavage was 1.72.
Work on A27G A36U yielded a self-cleavage of 0.85.
In the case of A24G U57C, the self-cleavage is reported as 1.51.
Work on G99A U132A yielded a self-cleavage of 0.23.
With C105A the self-cleavage was 0.03.
Variant U70C A125G has a self-cleavage of 0.19.
With A98G G99U the self-cleavage was 1.42.
In the case of U38A U124A, the self-cleavage is reported as 0.87.
In the case of U103C G104A, the self-cleavage is reported as 0.02.
U9C U108A gave a self-cleavage of 0.04.
U2C C46U showed a self-cleavage of 0.54.
Variant A89G G119C has a self-cleavage of 1.62.
Variant U38C A51G has a self-cleavage of 1.33.
With A69G A129U the self-cleavage was 0.33.
A33U U108C gave a self-cleavage of 0.05.
Work on A62C A135G yielded a self-cleavage of 1.24.
With A63G U72C the self-cleavage was 0.27.
With C128U the self-cleavage was 0.85.
In the case of U103A A114G, the self-cleavage is reported as 0.45.
For A22G G83A, the self-cleavage was 1.27.
With A56G A118C the self-cleavage was 0.64.
Work on A36G A69G yielded a self-cleavage of 1.37.
A62U U120C showed a self-cleavage of 1.
In the case of A78U A129C, the self-cleavage is reported as 0.14.
For A54G A118G, the self-cleavage was 1.08.
U9C A117G gave a self-cleavage of 1.91.
Work on A94U A125C yielded a self-cleavage of 1.08.
In the case of A36U C76A, the self-cleavage is reported as 0.1.
Work on C17U A30G yielded a self-cleavage of 1.03.
For A82G C112U, the self-cleavage was 0.
With A60G A118C the self-cleavage was 0.74.
With U19A A92G the self-cleavage was 1.47.
C34A G73A showed a self-cleavage of 0.17.
A47G A86G showed a self-cleavage of 1.25.
With A91G U103C the self-cleavage was 0.46.
In the case of G123A, the self-cleavage is reported as 1.06.
Work on U70C A86G yielded a self-cleavage of 0.86.
